# From article PMC2675579, “Structure of N-acetylglucosamine-1-phosphate uridyltransferase (GlmU) from Mycobacterium tuberculosis in a cubic space group” (Acta Crystallographica Section F: Structural Biology and …, 2009)
# Target: the molecule itself
# Assay: SEC; 26/60 Superdex200 High Load gel-filtration column, 20 mM HEPES pH 7.5, 150 mM NaCl, 1 mM DTT
protein,measurement,value
"N-acetylglucosamine-1-phosphate uridyltransferase (GlmU) from Mycobacterium tuberculosis (enzyme, GlmU, Mycobacterium tuberculosis, gene Rv1018c (glmU); model built for residues 1-472; also called Rv1018c gene product; M. tuberculosis GlmU) MTFPGDTAVLVLAAGPGTRMRSDTPKVLHTLAGRSMLSHVLHAIAKLAPQRLIVVLGHDHQRIAPLVGELADTLGRTIDVALQDRPLGTGHAVLCGLSALPDDYAGNVVVTSGDTPLLDADTLADLIATHRAVSAAVTVLTTTLDDPFGYGRILRTQDHEVMAIVEQTDATPSQREIREVNAGVYAFDIAALRSALSRLSSNNAQQELYLTDVIAILRSDGQTVHASHVDDSALVAGVNNRVQLAELASELNRRVVAAHQLAGVTVVDPATTWIDVDVTIGRDTVIHPGTQLLGRTQIGGRCVVGPDTTLTDVAVGDGASVVRTHGSSSSIGDGAAVGPFTYLRPGTALGADGKLGAFVEVKNSTIGTGTKVPHLTYVGDADIGEYSNIGASSVFVNYDGTSKRRTTVGSHVRTGSDTMFVAPVTIGDGAYTGAGTVVREDVPPGALAVSAGPQRNIENWVQRKRPGSPAAQASKRASEMACQQPTQPPDADQTP",stoichiometry N,3
